The values that follow come from PMC9008041.

Experiment [1] addresses recombinant C-terminal protein of MUC5B (CT5B) (human). The experiment in a line: rate-zonal centrifugation on sucrose gradients; recombinant MUC5B sub-domain (NT5B, CT5B 400 μg/mL) incubated 1 h at 37 °C with 1 mM CsA, 5-20% (w/v) sucrose in PBS pH 7.4, 210,000 g, 15 °C, 2 h 30 min; protein detected by anti-His slot blot (NT5B, CT5B) or SDS-PAGE (Cys7).
Experiment [2] has as its target recombinant N-terminal protein of MUC5B (NT5B) (human) (UniProt Q9HC84). The experiment is described as above.
In experiment [3] the target is purified polymeric mucin MUC5AC (human) (UniProt P98088). As to the kind of experiment: rate-zonal centrifugation on sucrose gradients; purified polymeric mucin incubated 1 h at 37 °C with cyclic peptide (1 mM; CsA also 200 μM and 2 mM; MUC5B 100, 200 or 400 μg/mL), 10-35% (w/v) sucrose in PBS pH 7.4, 210,000 g, 15 °C, 1 h 15 min; mucin detected in fractions and pellet by slot blot; the peptide itself is not detected.

Experiment [4] concerns the target purified polymeric mucin MUC5B (human) (UniProt Q9HC84). The description is as above.
The target of experiment [5] is purified polymeric mucin MUC2 (human) (UniProt Q02817). Described as above.
For experiment [6], the target named is recombinant N-terminal protein of MUC5B (NT5B) (human) (UniProt Q9HC84). As to the kind of experiment: rate-zonal centrifugation on sucrose gradients; recombinant NT5B or CT5B with 200 μM CsA in PBS at pH 5.5, compared with pH 7.4; 5-20% (w/v) sucrose; detected by anti-His slot blot.
Experiment [7] concerns the target purified polymeric mucin MUC5B (human) (UniProt Q9HC84). As to the kind of experiment: rate-zonal centrifugation on sucrose gradients; purified MUC5B with 200 μM CsA in PBS at pH 5.5, compared with pH 7.4; 10-35% (w/v) sucrose; MUC5B detected by slot blot.

Turning to cyclosporin A (peptide), the percent of CT5B in the pellet (1 mM CsA) in experiment [1] is 29.1%. Besides, the percent of NT5B in the pellet (1 mM CsA) in experiment [2] amounted to 16.3%. In experiment [3], this substance showed a percent of MUC5AC in the pellet (1 mM CsA) of 8.2%. Moreover, in experiment [4], the percent of MUC5B in the pellet (1 mM CsA, MUC5B 100 μg/mL) was 18.6%; the percent of MUC5B in the pellet (1 mM CsA, MUC5B 200 μg/mL) turned out to be 13.3%; the percent of MUC5B in the pellet (2 mM CsA, MUC5B 200 μg/mL) was 11.8%. In experiment [5], this substance showed a percent of MUC2 in the pellet (1 mM CsA) of 14.6%. The fold increase of NT5B in the pellet at pH 5.5 against pH 7.4 (200 μM CsA) in experiment [6] amounted to 4.2 fold. This substance also showed a fold increase of MUC5B in the pellet at pH 5.5 against pH 7.4 (200 μM CsA) in experiment [7] of 3.6 fold.
